This note sets out measurements from article PMC5940254 (The Journal of General Physiology, 2018).

Read-outs that look alike come from different tables or passages of the source.

Assay in all cases: single-molecule pull-down
Data set [1] addresses Ci-VSP phosphatase-only protein (PDo) (Ciona intestinalis).
The target is the same in data set [2]. The source holds these as a separate data set.
The target of data set [3] is Ci-VSP voltage-sensing domain only protein (VSDo) (Ciona intestinalis).
Data set [4] has the same target. This is another data set of the same source.
Data set [5] deals with the molecule itself.

The stoichiometry N is the number of molecules, sites or subunits per partner or assembly. Consider “Ci-VSP phosphatase-only protein (PDo) (domain or fragment)”, for which, in data set [1], the percent of spots bleaching in a single step is 80% and the stoichiometry N came out at 2. For the same molecule, in data set [2], the percent of spots bleaching in a single step was 57% and the percent of spots bleaching in two steps was 34%.
For “Ci-VSP voltage-sensing domain only protein (VSDo) (domain or fragment)”, in data set [3], the percent of spots bleaching in a single step came to 65% and the stoichiometry N was 2. In data set [4], this molecule displayed a percent of spots bleaching in a single step of 37% and a percent of spots bleaching in two steps of 55%.

B1: ASIC1A channel, HA- and GFP-tagged (trimer control) (natural protein)
chain: MELKTEEEEVGGVQPVSIQAFASSSTLHGLAHIFSYERLSLKRALWALCFLGSLAVLLCVCTERVQYYFCYHHVTKLDEVAASQLTFPAVTLCNLNEFRFSQVSKNDLYHAGELLALLNNRYEIPDTQMADEKQLEILQDKANFRSFKPKPFNMREFYDRAGHDIRDMLLSCHFRGEACSAEDFKVVFTRYGKCYTFNSGQDGRPRLKTMKGGTGNGLEIMLDIQQDEYLPVWGETDETSFEAGIKVQIHSQDEPPFIDQLGFGVAPGFQTFVSCQEQRLIYLPSPWGTCNAVTMDSDFFDSYSITACRIDCETRYLVENCNCRMVHMPGDAPYCTPEQYKECADPALDFLVEKDQEYCVCEMPCNLTRYGKELSMVKIPSKASAKYLAKKFNKSEQYIGENILVLDIFFEVLNYETIEQKKAYEIAGLLGDIGGQMGLFIGASILTVLELFDYAYEVIKHRLCRRGKCQKEAKRSSADKGVALSLDDVKRHNPCESLRGHPAGMTYAANILPHHPARGTFEDFTC
For the molecule B1, the “stoichiometry N” value in data set [5] was determined as 3.

B2: TREK1 channel, HA- and/or GFP-tagged (dimer and monomer controls) (natural protein)
chain: MLASASRERPGYTAGVAAPDLLDPKSAAQNSKPRLSFSSKPTVLASRVESDSAINVMKWKTVSTIFLVVVLYLIIGATVFKALEQPQEISQRTTIVIQKQTFIAQHACVNSTELDELIQQIVAAINAGIIPLGNSSNQVSHWDLGSSFFFAGTVITTIGFGNISPRTEGGKIFCIIYALLGIPLFGFLLAGVGDQLGTIFGKGIAKVEDTFIKWNVSQTKIRIISTIIFILFGCVLFVALPAVIFKHIEGWSALDAIYFVVITLTTIGFGDYVAGGSDIEYLDFYKPVVWFWILVGLAYFAAVLSMIGDWLRVISKKTKEEVGEFRAHAAEWTANVTAEFKETRRRLSVEIYDKFQRATSVKRKLSAELAGNHNQELTPCRRTLSVNHLTSEREVLPPLLKAESIYLNGLTPHCAGEDIAVIENMK
As for B2, the “stoichiometry N” value in data set [5] amounted to 2.
